{"source": "paper doi:10.1101/2021.07.15.452465", "about": "(2021)", "binders": {"B1": {"name": "A. fumigatus HapX^24-158 wild type (domain or fragment)", "chain": "SPSPGPGTPGSITSKEWVIPPRPKPGRKPATDTPPTKRKAQNRAAQRAFRERRAARVNELEEQIKKIEDEHEIHIAAFKEQITNLSREVEQCRSEMTWWRDRCHALEKEVSVERSAKEAIVKEFRSSLSDREAVR"}, "B2": {"name": "A. fumigatus CBC consisting of the subunits HapB^230-299, HapC^40-137 and HapE^47-164 (complex)", "chain 1": "not shown", "chain 2": "KEQDRWLPIANVARIMKLALPENAKIAKEAKECMQECVSEFISFITSEASEKCQQEKRKTVNGEDILFAMTSLGFENYAEALKIYLSKYRETQSARGE", "chain 3": "GTWANVNQGLQGTARDILTTYWQHIINHLESDNHDYKIHQLPLARIKKVMKADPEVKMISAEAPILFAKGCDIFITELTMRAWIHAEDNKRRTLQRSDIAAALSKSDMFDFLIDIVPR"}}, "key": {"[1]": {"target": "B2", "assay": "SPR"}, "[2]": {"target": "B2", "assay": "SPR", "remark": "listed apart in the source"}, "[3]": {"target": "B2", "assay": "SPR", "remark": "listed apart in the source"}, "[4]": {"target": "B2", "assay": "SPR", "remark": "listed apart in the source"}, "[5]": {"target": "T1, A. fumigatus HapX^24-158 ΔT36-I42 (Aspergillus fumigatus, UniProt Q4WER3 24-158, ΔT36-I42)", "assay": "SPR; CBC preformed on Afucyp51A 37 bp DNA"}, "[6]": {"target": "T1, A. fumigatus HapX^24-158 ΔT36-I42", "assay": "SPR; CBC preformed on AfucccA 37 bp DNA"}, "[7]": {"target": "A. fumigatus HapX^24-158 R45A (Aspergillus fumigatus, UniProt Q4WER3 24-158, R45A)", "assay": "SPR; CBC preformed on AfucccA 37 bp DNA"}, "[8]": {"target": "A. fumigatus HapX^24-158 K38E (Aspergillus fumigatus, UniProt Q4WER3 24-158, K38E)", "assay": "SPR; CBC preformed on AfucccA 37 bp DNA"}, "[9]": {"target": "A. fumigatus HapX^24-158 W40A (Aspergillus fumigatus, UniProt Q4WER3 24-158, W40A)", "assay": "SPR; CBC preformed on AfucccA 37 bp DNA"}, "[10]": {"target": "A. fumigatus HapX^24-158 R50A (Aspergillus fumigatus, UniProt Q4WER3 24-158, R50A)", "assay": "SPR; CBC preformed on AfucccA 37 bp DNA"}}, "note": "Like-named read-outs stand apart in the source and are kept apart here."}
{"binder": "B1", "values": [{"measurement": "Kd", "setting": "[1]", "result": 22.7, "unit": "nM"}, {"measurement": "Kd", "setting": "[2]", "result": 0.34, "unit": "nM"}, {"measurement": "Kd", "setting": "[3]", "result": 28.3, "unit": "nM"}, {"measurement": "Kd", "setting": "[4]", "result": 0.9, "unit": "nM"}]}
{"binder": "B2", "values": [{"measurement": "Kd", "setting": "[5]", "result": 511, "unit": "nM"}, {"measurement": "Kd", "setting": "[6]", "result": 136, "unit": "nM"}, {"measurement": "Kd", "setting": "[7]", "result": 2.86, "unit": "nM"}, {"measurement": "Kd", "setting": "[8]", "result": 3.76, "unit": "nM"}, {"measurement": "Kd", "setting": "[9]", "result": 13.2, "unit": "nM"}, {"measurement": "Kd", "setting": "[10]", "result": 3.93, "unit": "nM"}]}
